Test results: the supplement of paper PMC9732359
± gives the uncertainty stated by the source.

Test: protein stability index of a GFP-peptide fusion (yeast GPS) (PSI 1-4); higher = more stable; sorted into four equal gates, so the index is relative within each strain
In short: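 The protein stability index combines read frequencies across sorting gates, each weighted by its gate number and then summed. To obtain those frequencies, a pooled yeast library of GFP fusions to tiled 17-residue yeast protein peptides, on a plasmid also expressing Cherry, was grown to mid-log phase in leucine-free medium. The cells were sorted into four equal gates by GFP/Cherry ratio before plasmid amplification by PCR and Illumina sequencing.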

Sequence | protein stability index (doa10∆) | protein stability index (pdr5∆) | protein stability index (san1∆) | protein stability index (ubr1∆)
GNMGITTEMLDKLMVTS [MED6] | 3.36 ± 0.1 | 3.55 ± 0.1 | 3.26 ± 0.068 | 3.07 ± 0.11
TRDDLLTILMRSIMKNR [RRI2] | 2.36 ± 0.082 | 2.61 ± 0.087 | 2.22 ± 0.29 | 2.75 ± 0.067
NSTSKNTLLQQQNYSKV [SWI1] | 2.33 ± 0.067 | 2.86 ± 0.12 | 2.08 ± 0.078 | 2.68 ± 0.06
ESPNYCNALIHIKFSAG [SRB4] | 1.66 ± 0.042 | 1.83 ± 0.039 | 1.93 ± 0.069 | 2.04 ± 0.034
LTVFYAIKKFKTEKDGV [SSN3] | 2.17 ± 0.12 | 1.74 ± 0.057 | 2.42 ± 0.061 | 1.97 ± 0.085
QTLGLESFTEELSNELS [MED1] | 3.29 ± 0.064 | 3.1 ± 0.051 | 3.06 ± 0.05 | 3 ± 0.037
QTVRLIKDLQRAINKVL [SIR2] | 2.13 ± 0.057 | 2.03 ± 0.061 | 1.22 ± 0.11 | 2 ± 0.039
QSTPQPDDMVEINSVGN [ITC1] | 3.2 ± 0.11 | 3.42 ± 0.043 | 3.04 ± 0.13 | 3.18 ± 0.075
ERIVVSYEYYNIKHKHT [SMC2] | 1.63 ± 0.047 | 1.86 ± 0.064 | 1.74 ± 0.11 | 1.87 ± 0.049
LGYKAKQGFVIYRVRVR [RPL15A] | 2.22 ± 0.1 | 2.04 ± 0.11 | 2.06 ± 0.15 | 1.84 ± 0.11
KKICNHPFVFEEVEDQI [SNF2] | 3.17 ± 0.064 | 2.89 ± 0.055 | 2.94 ± 0.06 | 2.86 ± 0.045
AFNDSCVNLSLFDARFE [SRB8] | 3.11 ± 0.09 | 3.15 ± 0.059 | 3.39 ± 0.091 | 3.14 ± 0.051
NFIVHSPMLKRIKITAN [GRR1] | 1.48 ± 0.072 | 1.2 ± 0.075 | 1.29 ± 0.13 | 1.19 ± 0.061
INIQKKLEPKEIVRDIL [SIR4] | 3.05 ± 0.085 | 3.19 ± 0.12 | 2.85 ± 0.12 | 2.86 ± 0.11
LSRNGKPVMEVTSSFFY [FAS1] | 3.04 ± 0.077 | 2.99 ± 0.089 | 2.79 ± 0.086 | 2.6 ± 0.073
EKGKKVSGFKDEVLETV [RPS1B] | 3.39 ± 0.11 | 2.82 ± 0.11 | 3.48 ± 0.11 | 3.44 ± 0.084
LNEAQGHIVSLELTTGA [SMD3] | 1.47 ± 0.053 | 1.9 ± 0.059 | 1.59 ± 0.14 | 1.85 ± 0.072
LILIPGETMWVPIKSSK [RPN13] | 2.17 ± 0.083 | 2.51 ± 0.068 | 2.61 ± 0.057 | 1.81 ± 0.055
IEELDNPMVPSSVNEDT [PRP8] | 3.26 ± 0.075 | 3.22 ± 0.065 | 3.33 ± 0.053 | 3.26 ± 0.049
NTEITQKSSKENIENEE [ECM29] | 3.05 ± 0.082 | 3.28 ± 0.087 | 2.76 ± 0.078 | 2.94 ± 0.09
GAMTPEEIFFKSVRILK [RPC40] | 2.9 ± 0.12 | 3.28 ± 0.14 | 2.96 ± 0.14 | 3.22 ± 0.093
ASSTPIPVLGKPTDATG [YOR098C/NUP1] | 2.43 ± 0.055 | 2.88 ± 0.055 | 2.6 ± 0.05 | 2.42 ± 0.036
QEHNIQDSNVMPGSQIN [SNF2] | 3.11 ± 0.074 | 3.11 ± 0.057 | 2.68 ± 0.07 | 3.31 ± 0.062
SYWQKSYFKNSVIVKFH [LIN1] | 2.56 ± 0.041 | 2.62 ± 0.045 | 2.42 ± 0.06 | 2.35 ± 0.041
EQLSPQDVLQMLGRAGR [BRR2] | 3.14 ± 0.27 | 3.17 ± 0.18 | 3.48 ± 0.15 | 3.36 ± 0.12
DQWYCIDKLEDLSRIMD [ITC1] | 2.65 ± 0.26 | 2.64 ± 0.22 | – | –
